From publication PMC5308204 (Nature genetics, 2010) come the findings set out here.

What all share (test): co-IP
Experiment [1] has as its target T1, HA-tagged VPS33B (human, UniProt Q9H267 1-617).
T1 sequence (looked up): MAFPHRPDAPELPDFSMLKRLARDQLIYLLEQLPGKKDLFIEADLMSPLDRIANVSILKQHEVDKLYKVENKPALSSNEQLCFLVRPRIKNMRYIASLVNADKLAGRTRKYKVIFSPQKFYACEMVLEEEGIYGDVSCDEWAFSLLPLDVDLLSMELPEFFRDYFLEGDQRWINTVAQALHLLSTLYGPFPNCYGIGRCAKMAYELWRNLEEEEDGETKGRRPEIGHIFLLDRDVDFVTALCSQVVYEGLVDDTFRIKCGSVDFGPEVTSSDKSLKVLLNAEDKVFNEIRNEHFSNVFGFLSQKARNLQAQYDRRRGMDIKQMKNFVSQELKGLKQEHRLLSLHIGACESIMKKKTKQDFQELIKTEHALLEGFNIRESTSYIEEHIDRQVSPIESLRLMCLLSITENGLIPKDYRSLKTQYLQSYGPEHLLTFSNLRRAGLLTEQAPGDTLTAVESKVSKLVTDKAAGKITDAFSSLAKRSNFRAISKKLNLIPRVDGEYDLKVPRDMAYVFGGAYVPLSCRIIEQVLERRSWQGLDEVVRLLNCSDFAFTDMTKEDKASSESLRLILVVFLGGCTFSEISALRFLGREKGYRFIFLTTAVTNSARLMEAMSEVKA

In experiment [2] the target is T2, HA-tagged VPS33B (L30P) mutant (human, UniProt Q9H267 1-617, L30P).
T2 sequence (looked up): T1 sequence (looked up) with L30P

Experiment [3] deals with T3, HA-tagged VPS33A (UniProt Q96AX1 1-596).
T3 sequence (looked up): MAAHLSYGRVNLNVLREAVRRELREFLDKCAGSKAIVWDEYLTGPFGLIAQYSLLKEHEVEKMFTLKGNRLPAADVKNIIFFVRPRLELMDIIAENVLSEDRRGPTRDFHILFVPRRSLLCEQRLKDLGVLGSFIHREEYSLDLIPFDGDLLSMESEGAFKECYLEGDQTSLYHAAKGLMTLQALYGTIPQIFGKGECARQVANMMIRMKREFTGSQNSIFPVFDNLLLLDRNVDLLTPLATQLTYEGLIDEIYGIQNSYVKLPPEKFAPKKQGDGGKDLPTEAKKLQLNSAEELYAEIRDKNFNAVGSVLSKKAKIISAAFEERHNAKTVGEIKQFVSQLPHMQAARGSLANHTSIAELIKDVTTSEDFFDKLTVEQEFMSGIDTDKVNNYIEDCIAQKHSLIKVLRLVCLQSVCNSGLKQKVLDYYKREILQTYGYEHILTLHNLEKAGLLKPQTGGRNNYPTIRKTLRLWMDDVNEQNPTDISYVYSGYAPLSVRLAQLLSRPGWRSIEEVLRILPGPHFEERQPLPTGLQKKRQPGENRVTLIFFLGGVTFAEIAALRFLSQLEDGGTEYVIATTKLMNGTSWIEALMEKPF

Positions count from the first letter of the chain named.

B1: Myc-tagged VIPAR (natural protein, human, UniProt Q9H9C1 1-493, looked up)
chain: MNRTKGDEEEYWNSSKFKAFTFDDEDDELSQLKESKRAVNSLRDFVDDDDDDDLERVSWSGEPVGSISWSIRETAGNSGSTHEGREQLKSRNSFSSYAQLPKPTSTYSLSSFFRGRTRPGSFQSLSDALSDTPAKSYAPELGRPKGEYRDYSNDWSPSDTVRRLRKGKVCSLERFRSLQDKLQLLEEAVSMHDGNVITAVLIFLKRTLSKEILFRELEVRQVALRHLIHFLKEIGDQKLLLDLFRFLDRTEELALSHYREHLNIQDPDKRKEFLKTCVGLPFSAEDSAHIQDHYTLLERQIIIEANDRHLESAGQTEIFRKHPRKASILNMPLVTTLFYSCFYHYTEAEGTFSSPVNLKKTFKIPDKQYVLTALAARAKLRAWNDVDALFTTKNWLGYTKKRAPIGFHRVVEILHKNNAPVQILQEYVNLVEDVDTKLNLATKFKCHDVVIDTYRDLKDRQQLLAYRSKVDKGSAEEEKIDALLSSSQIRWKN
With B1, the “percent of the Myc-tagged input recovered” value was determined as 28.6% in experiment [1] and 23.8% in experiment [2].

B2: Myc-tagged VPS16 (natural protein, human, UniProt Q9H269 1-839, looked up)
chain: MDCYTANWNPLGDSAFYRKYELYSMDWDLKEELRDCLVAAAPYGGPIALLRNPWRKEKAASVRPVLDIYSASGMPLASLLWKSGPVVSLGWSAEEELLCVQEDGAVLVYGLHGDFRRHFSMGNEVLQNRVLDARIFHTEFGSGVAILTGAHRFTLSANVGDLKLRRMPEVPGLQSAPSCWTVLCQDRVAHILLAVGPDLYLLDHAACSAVTPPGLAPGVSSFLQMAVSFTYRHLALFTDTGYIWMGTASLKEKLCEFNCNIRAPPKQMVWCSRPRSKERAVVVAWERRLMVVGDAPESIQFVLDEDSYLVPELDGVRIFSRSTHEFLHEVPAASEEIFKIASMAPGALLLEAQKEYEKESQKADEYLREIQELGQLTQAVQQCIEAAGHEHQPDMQKSLLRAASFGKCFLDRFPPDSFVHMCQDLRVLNAVRDYHIGIPLTYSQYKQLTIQVLLDRLVLRRLYPLAIQICEYLRLPEVQGVSRILAHWACYKVQQKDVSDEDVARAINQKLGDTPGVSYSDIAARAYGCGRTELAIKLLEYEPRSGEQVPLLLKMKRSKLALSKAIESGDTDLVFTVLLHLKNELNRGDFFMTLRNQPMALSLYRQFCKHQELETLKDLYNQDDNHQELGSFHIRASYAAEERIEGRVAALQTAADAFYKAKNEFAAKATEDQMRLLRLQRRLEDELGGQFLDLSLHDTVTTLILGGHNKRAEQLARDFRIPDKRLWWLKLTALADLEDWEELEKFSKSKKSPIGYLPFVEICMKQHNKYEAKKYASRVGPEQKVKALLLVGDVAQAADVAIEHRNEAELSLVLSHCTGATDGATADKIQRARAQAQKK
As to B2, in experiment [3], the “percent of the Myc-tagged input recovered” value worked out at 28.2%.
